The results in this text go back to the nanobody polyreactivity screen of Harvey et al. (2022).

The nature of this data set: yeast display, Sf9 membrane polyspecificity reagent, FACS + sequencing; frameworks hold sequencing errors. The method in brief:
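Galactose-induced (36–48 hours) yeast carrying a synthetic nanobody display library were exposed to 10% biotinylated, detergent-solubilized Sf9 membrane reagent at 4 °C for 1 hour. FACS followed streptavidin microbead enrichment, using low and high (top ~1%) gates for expression (anti-HA) and reagent binding (streptavidin). Colony PCR, MiSeq 2 × 250 sequencing and CDR-length filtering followed. Labels for polyreactivity reflect the gate of origin.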
As to “QVQLEESGGGLVQAGGSLRLSCAASGSTFYPNAMGWYRQAPGKERELVAAISQRGGRKYYADSVKGRFTISRDNAKNTVYLQMNSLKPEDTAVYYCAATYQGYNSWYSFGYWGQGTQVTVSS”, the “polyreactivity (PSR sort gate)” value was “high polyreactivity”.

As to “QVQLEESGGGLVQAGGSLRLSCAASGSTFYRYAMGCYRQAPGKERELVAAMSRGGGRTNYADSVKGRFTISRDNAKNTVYLQMNSLKPEDTAVYYGAAYTYSFRANHDYWGQGTQVTVSS”, the “polyreactivity (PSR sort gate)” value is on record as “high polyreactivity”.

Regarding “QVQLEESGGGLVQAGGSLRLSCAASGSTFYRYTMGWYRQAPGTERELVAAISRSGGRTYYADSVKGRFTISRDNAKNTVYLQMNSLKPEDTAVYYCAAARRYGRYFGYPMEYWGQGTQVTVSS”, the “polyreactivity (PSR sort gate)” value is given as “high polyreactivity”.

Take “QVQLEESGGGLVQAGGSLRLSCAASGSTFYSNAIGWYRQAPGKEREFVAAISLRGGSTYYADSVKGRFTISRDNAKNTVYLQMNSLKPEDTAVYYCAVDYYRRNGLKVYYRYDYWGQGTQVTVSS”: the “polyreactivity (PSR sort gate)” value is listed as “high polyreactivity”.

Take “QVQLEESGGGLVQAGGSLRLSCAASGSTIPRNAMGWYRQAPGKERELVAAITSGGSTNYADSVKGRFTISRDNAKNTVYLQMNSLKPEDTSVYYCAADEQVNTQYVVWGDYWGQGTQVTVSS”: the “polyreactivity (PSR sort gate)” value was “low polyreactivity”.

As to “QVQLEESGGGLVQAGGSLRLSCAASGSTLIDNVMVWYRQAPGKERELVASITSSDGTTYADSVKGRITISRDNAKNTVYLQMNSLIPEDTAVYYCAARPWYGTYNYWGQGTQVTVSS”, the “polyreactivity (PSR sort gate)” value is “low polyreactivity”.

In the case of “QVQLEESGGGLVQAGGSLRLSCAASGSTLKLNAMGWYRQAPGKERELVASINFSGGSTYYAYSVKGRFTISRDNAKNTVYLQMNSLKPEDTAVYYCAAEASSYSRSVRWRYVYYYWGQGTQVTVSS”, the “polyreactivity (PSR sort gate)” value is “high polyreactivity”.

As for “QVQLEESGGGLVQAGGSLRLSCAASGTFVTYMGWYRQAPGKERELVAAIRNGGSTNYADSVKGRFTISRDNAKNTVYLQMNSLKPEDTAVYYCAARVTYSRGYRGGSRTKYDYWGQGTQVTVSS”, the “polyreactivity (PSR sort gate)” value is given as “low polyreactivity”.

As for “QVQLEESGGGLVQAGGSLRLSCAASGYIFDYNAMGWYRQAPGKERELVAVISRGGRTYYADSVKGRFTISRDNAKNTVYLQMNILKPEDTAVYYCAADRQSYPYDYWGQGTQVTVSS”, the “polyreactivity (PSR sort gate)” value was “high polyreactivity”.

Consider “QVQLEESGGGLVQAGGSLRLSCAASGYTFATYAMGWSRQAPGKERELVAAISQGGDRTNYADSVKGRFTISRDNAKITVYLQMNSLKPEDTSVYYCAVRYASRQSRFYYWGQGTQVTVSS”, for which the “polyreactivity (PSR sort gate)” value is listed as “high polyreactivity”.

As for “QVQLEESGGGLVQAGGSLRLSCAASRRIFGSNAMGWYRQAPAKERELVAVITSGGRTYYADSVKGRFTISRDNAKNTVYLQMNSLKPGDTSVYYCNAYYKAAYDYWGQGTQVTVSS”, the “polyreactivity (PSR sort gate)” value is “high polyreactivity”.

As to “QVQLEESGGGLVQAGGSLRLSCAGSGRIFAYYPMGWYRQAPGKERELVAAISRSGVSTYYADSVKGRFTISRDNAKNTVYLQMNSLKPEDTAVYYCAATYWRRGGYRMEYWGQGTQVTVSS”, the “polyreactivity (PSR sort gate)” value is listed as “low polyreactivity”.

With “QVQLEESGGGLVQAGGSLRLSCAPSGYNYRKNVIGWYRQAPGKERELVAAISARGGSTYYADSVKGRFTISRDNAKNTVYLQMYSLKAEVTAVYFCNTDGYLYPYDSWGLGTQVTVSS”, the “polyreactivity (PSR sort gate)” value is reported as “high polyreactivity”.

Regarding “QVQLEESGGGLVQAGGSLRLSCASSGSTFPYNAMGWYRQAPGKERELVAANTSGASTNYADSVKGRFTISRENAKNTVYLQMNRLKPEDTAVYYCAAQSFGKRIWSPRYQLNYWGQGTQVTVSS”, the “polyreactivity (PSR sort gate)” value is recorded as “low polyreactivity”.

Turning to “QVQLEESGGGLVQAGGSLRLSCDASGRIFGGYAMGWYRQAPGKERELVAAISASGGRTYYADSVKGRFTISRDNAKNTVYLQMNSLKPEDTAVYYCAASFRRTSLRWHGEYWGQGTQVTVSS”, the “polyreactivity (PSR sort gate)” value is given as “high polyreactivity”.

Turning to “QVQLEESGGGLVQAGGSLRLSCPASGITFYRYVMGWNRQAPGKERELDAAINWSTGTTNYADSVKGRFTISRDNAKNTVYLQMNSLKPEDTAVYYCNARYRLRFIYSLRYDYWGQGTQVTVSS”, the “polyreactivity (PSR sort gate)” value is reported as “high polyreactivity”.

“QVQLEESGGGLVQAGGSLRLSCPASGSTFIVNVMGWYRQAPGKERELVAAINSGGSTDYADSVKGRFTISRDNAKNTVYLQMNSLKPEDTAVYYCNAYHIVIYDYWGQGTQVTVSS”: the “polyreactivity (PSR sort gate)” value is on record as “low polyreactivity”.

As for “QVQLEESGGGLVQAGGSLRLSCSAYGFTFSRYDMGWYRQAPGKERELVAAISWSGGSTYYADSVKGRFTISRDNAKNSVYLQMNSLKPEDTAVYYCAKPGWSVTGESWGQGTQVTVSA”, the “polyreactivity (PSR sort gate)” value is “high polyreactivity”.

Take “QVQLEESGGGLVQAGGSLRLSFAASGFTFVRNTMGWDRQAPGKERELVAAISRSGGSTYYADSVKGRFTISRDKAKNTVYLQMNSLKPEDTAVYYCNAYRYVHYDWGQGTQVTVSS”: the “polyreactivity (PSR sort gate)” value is “high polyreactivity”.

Take “QVQLEESGGGLVQAGGSLRLSSAASGFTFAFYAMGWYRQAPGKERELVAAISRRGGSTTYADSVKGRFTISRDNAKNTVYLQMNSLKPEDTAVYYCNAVSTRNPGPDYYYWGQGTQVNVSS”: the “polyreactivity (PSR sort gate)” value is reported as “high polyreactivity”.

On to “QVQLEESGGGLVQAGGSLRLSYAASGSIYSYYAMGWYRQAPGKERELVAAISRSGTSTYYADSVKGRFTISRDNAKNTVYLQMNSLKPEDTAVYYFGYYYGGDYWGQGTQVTVSS”, for which the “polyreactivity (PSR sort gate)” value is given as “high polyreactivity”.

In the case of “QVQLEESGGGLVQAGGSLRLTCAASGLTSRNYAMGWYRHAPRKARELVAAISKSGSRTYYADSVKGRFTISRDNAKNTVYLQMNSLKPEDTAVYYCATDYLDGTSYDYWGQGTQVTVSS”, the “polyreactivity (PSR sort gate)” value was “high polyreactivity”.

As to “QVQLEESGGGLVQAGGSLRLTCAASGRIFTPYAMGWYRQAPGKQTELVADIRDGSTYYADSVKGRFTISRDNAKNTVYLQMNSLKPEDTAVYYSRYYIWVWWSGAYDYWGQGTQVTVSS”, the “polyreactivity (PSR sort gate)” value is “low polyreactivity”.

Consider “QVQLEESGGGLVQAGGSLRLTCAASGRNFTYYAMGWSIQAPGNEREIVAAISSSGGSTSYADSVKGRFTISRDNAKNTVYLQMNSLKPEDTAVYYCAAVTRDYGSRSGLDYWGQGTQVTVSS”, for which the “polyreactivity (PSR sort gate)” value is listed as “high polyreactivity”.

In the case of “QVQLEESGGGLVQAGGSLSLSCAASGSTFDNYAMGWYRKAPGKERELVADITWSGGSTYYADSVKGRFTISRDNAQNSVYLQMNSLKAEDTAVYYCNTAGYYTKYDYWGQGTQVTVSS”, the “polyreactivity (PSR sort gate)” value was “low polyreactivity”.

Turning to “QVQLEESGGGLVQAGVSLRLSCAASGSTFSLYAMGWYRPAPGKERELVAAISSGGRTNYADSVKGRFTISRDNAKKTVYLQMNSLKPEDTAVYYCAARIQWPTWSLYYYWGQGTQVTVSS”, the “polyreactivity (PSR sort gate)” value is “high polyreactivity”.

Consider “QVQLEESGGGLVQEGGSLRLSCADSGFTLWLNAMGWYRQAPGKERELVAAITTSDDGTYYADSVKGRFTISRDNAKNSVYLQMNSMKPEDTAVYYCAADYYSVLYDYWVQGTQVTVSS”, for which the “polyreactivity (PSR sort gate)” value was “low polyreactivity”.

In the case of “QVQLEESGGGLVQGGGSLRLSCAASGSNFQDNAMGWYRQAPGKERELVAAITGRDASTYYADSVKGRFTISRDNAKNTVYLQLNCLKPEDTAVDYCYWGQGTQVTVSS”, the “polyreactivity (PSR sort gate)” value is reported as “low polyreactivity”.

Turning to “QVQLEESGGRLVQAGGSLRLSCAASGRTFGPYGMGWYRQAPGKESELDAAINGNGDSTYYADSVKGRFTISRDNAKNTVYLQMNSLKPEDTAVYYCASEGWPDYTSRLYDYWGQGTQVTVSS”, the “polyreactivity (PSR sort gate)” value is recorded as “low polyreactivity”.

On to “QVQLEESGGRLVQAGGSLRLSCAASGSIFALYAMGWYRQAPGKERELVAAIDWSDGGTYYADSVKGRFTISRDNAKNTLYLQMNSLKPEDTAVYYCNRVYSTSRITQYEFDYWGQGTQVTVSS”, for which the “polyreactivity (PSR sort gate)” value is “low polyreactivity”.

Take “QVQLEESGGRLVQEGGSLRLSCAASGSTFITNAMGWYRQAPGKEWELVAAITYSTGGTYYEDSVKGRFTISRDNAKNTVYLQMYSLKPEDTAVYYCAALLYFFLYDYWGQGTQVTVSS”: the “polyreactivity (PSR sort gate)” value is given as “low polyreactivity”.

Take “QVQLEESGRGLVQAGGSLRLSCAASGFTFSLYAMGWYRQAPGKERELVAAISSRSGSTFYADSVKGRFTISRDNAKNTVYLQMNSLKPEDTAVYYCAARRDWLGGYWGQGTQVTVSS”: the “polyreactivity (PSR sort gate)” value is “high polyreactivity”.

As for “QVQLEESGRGLVQAGGSLRLSCAASGRTFLQYAMGWYRQAPRKERELVAANTTSGGDTYYADSVKGRFTISRDNAKNTVYLQMNSLKPEDTAVYYCNADFRVYIPHVPYFVDFDYWGQGTQVTVSS”, the “polyreactivity (PSR sort gate)” value was “low polyreactivity”.

Turning to “QVQLEESGVCLVQAGGSLRLSCAASGYIFISYARGWYREAPGKEREFVAAITGDGGSTYADSEKGRFTISRDNAKNTVYLLMNSLKPEDTAVYYCAVDGYGGEADYEFDHWGQGTQVNVSS”, the “polyreactivity (PSR sort gate)” value is on record as “low polyreactivity”.

With “QVQLEESGVGLVQAGGSLRLSCAASGFTFYYNAMGWYRQAPGKERELVAGITWSGGSTYYADSVKGRFTISRDNAKNTVYLQMNSLKPEDTAVYYFAKDHQDSDYDYWGQGTQVTVSS”, the “polyreactivity (PSR sort gate)” value is recorded as “high polyreactivity”.

Regarding “QVQLEESGVGLVQAGGSLRLSCPASGRIIYRNAIVWYSQAPGKERELVAAITGSGGITYYADSVKGRFTISRDNAKNTVYLLMNSLKPEVTAVYYCAARAKFLSVPTYDNWGQGTQVTVSS”, the “polyreactivity (PSR sort gate)” value was “high polyreactivity”.

With “QVQLEESRGGLVQAGGSLRLSCAASGYTLYEYAMGWYRQAPGKERELDAAITRSGGSTYYADSVKGRFTISRDNAKNTVYLQMNSLKPEDTAVFYCNADIYSRHTVGGYYYWGQGTQVTVSS”, the “polyreactivity (PSR sort gate)” value is “high polyreactivity”.

“QVQLEESVGGLVQAGGSLRLSCAASGFTFHRYAMGWYTQAPGKERELVAGITRRSGSTFYADSVQGRFTISRDNAKNTVFLQMNSLKPEDTAVYYCAATVPGLHWIYDYWGQGTQVTVSS”: the “polyreactivity (PSR sort gate)” value is “high polyreactivity”.

As to “QVQLEESVGGLVQAGGSLRLSCAASGRIFTIYAMVSYRQAPGKERELVAAISDRGTRTYYADSVKGRFTISRDNAKNTVYLQMNSLKPDDTAVYYCATDALYTYGYDYWGQGTQVTVSS”, the “polyreactivity (PSR sort gate)” value is listed as “low polyreactivity”.

On to “QVQLEESWGGLVQAGGSHRLICAASGSTIGYYAMGWYRQAPWKEREFVASITWGGASTDYADSVKGRFTISRDNAKNSVYLQMNSMKPEDTAVYYCAKDNWDNPRPTSEMDYWGQGTQVTVSS”, for which the “polyreactivity (PSR sort gate)” value is “low polyreactivity”.

With “QVQLEETRGGLVQAGGSLRLSCAASGSIFPYYALGWYRQAAGKERELVASINQTDGTTYYADSVKGRFTISRDNAKNNVYLQMNSLKPDDTAFYYCPADTTLQAFIPYRPIGSYDSWGQGTQVTVSS”, the “polyreactivity (PSR sort gate)” value is recorded as “low polyreactivity”.
